According to the Human Domainome abundance scans (Beltran et al. 2025):
± gives the uncertainty stated by the source.

B1: Membrane-associated guanylate kinase, WW and PDZ domain-containing protein 3, residues 287 to 329; numbered along this chain, Q5TCQ9 (parent)
chain: MRDETLEPLPKNWEMAYTDTGMIYFIDHNTKTTTWLDPRLCKK
B2: Zinc finger homeobox protein 3, residues 2643 to 2698; numbered along this chain, Q15911 (parent)
chain: RLRTTITPEQLEILYQKYLLDSNPTRKMLDHIAHEVGLKKRVVQVWFQNTRARERK

Variants of: B1
Test: abundance fitness (aPCA) (normalised: wild type 0, dead -1); higher = more abundant; growth selection in yeast, the domain comes from the species named
Settings: Homo sapiens

Abundance fitness: each site, then its substitutions
R2: G -0.054 ± 0.043, T -0.002 ± 0.033, M -0.015 ± 0.077, C -0.046 ± 0.048, E -0.05 ± 0.038, I -0.122 ± 0.055
K43: A 0.011 ± 0.072, L -0.011 ± 0.11, P 0.042 ± 0.046, H -0.036 ± 0.05, S 0.002 ± 0.04, N -0.062 ± 0.076, I -0.144 ± 0.047, W -0.044 ± 0.047
P8: Q -0.15 ± 0.053, G -0.13 ± 0.03, Y -0.395 ± 0.13, S -0.325 ± 0.11, E -0.078 ± 0.076, A -0.065 ± 0.034, M -0.255 ± 0.056, K -0.069 ± 0.041
L40: K 0.016 ± 0.04, V 0 ± 0.034, N 0.041 ± 0.071, P -0.118 ± 0.047, R -0.02 ± 0.03, D -0.039 ± 0.045, Y -0.193 ± 0.065, A -0.019 ± 0.038, M -0.069 ± 0.038, C -0.033 ± 0.035
F25: H -0.421 ± 0.1, Q -0.634 ± 0.05, T -0.662 ± 0.058, S -0.616 ± 0.057
N12: E -0.22 ± 0.049, R -0.215 ± 0.033, L -0.247 ± 0.035, I -0.96 ± 0.11, F -0.198 ± 0.049, T -0.438 ± 0.073, M -0.229 ± 0.06
T34: E -0.677 ± 0.045, L -1.21 ± 0.092, Y -0.982 ± 0.14, R -0.71 ± 0.035, A -0.632 ± 0.03, P -0.906 ± 0.053, C -0.64 ± 0.084, G -0.667 ± 0.033
P38: N -1.04 ± 0.1, F -0.95 ± 0.13, Y -1.17 ± 0.39, M -0.83 ± 0.066
L9: G -0.681 ± 0.034, S -0.621 ± 0.045, Q -0.566 ± 0.057, V -0.337 ± 0.036
T30: I -0.423 ± 0.19, D -0.281 ± 0.051, K -0.155 ± 0.094, E -0.265 ± 0.037, G -0.314 ± 0.029, Q -0.139 ± 0.053
M15: L -0.066 ± 0.035, Q -0.007 ± 0.035, Y -0.186 ± 0.051, W -0.283 ± 0.053, V -0.093 ± 0.035, H -0.156 ± 0.062
E14: S -0.12 ± 0.033, P -0.868 ± 0.064, V -0.346 ± 0.043, W -0.834 ± 0.056, R -0.273 ± 0.035, G -0.224 ± 0.029, A -0.132 ± 0.042, I -0.39 ± 0.066
W35: T -0.104 ± 0.054, P -0.34 ± 0.042, F 0.074 ± 0.079, D -0.359 ± 0.045, N -0.339 ± 0.15, E -0.361 ± 0.047, I -0.257 ± 0.051, V -0.291 ± 0.035, M -0.16 ± 0.039
L6: Q 0.103 ± 0.071, H -0.249 ± 0.07, T -0.018 ± 0.044, M -0.067 ± 0.069, Y -0.156 ± 0.052, K -0.128 ± 0.13, S 0.034 ± 0.034, V -0.024 ± 0.031, D -0.086 ± 0.061, G 0.001 ± 0.032
T18: K -0.539 ± 0.23, G -0.244 ± 0.029, C -0.223 ± 0.097, Q -0.624 ± 0.13
H28: A -0.323 ± 0.037, L -0.379 ± 0.043, R -0.164 ± 0.03, Q -0.306 ± 0.054, P -0.364 ± 0.042
E4: R -0.091 ± 0.03, M -0.11 ± 0.043, P -0.095 ± 0.045, S -0.043 ± 0.045, W -0.515 ± 0.057, H -0.174 ± 0.063, L -0.09 ± 0.04
Y24: A -0.723 ± 0.039, I -0.678 ± 0.12, R -0.598 ± 0.035, S -0.708 ± 0.058, C -0.652 ± 0.042, E -0.53 ± 0.043, W -0.579 ± 0.037, T -0.638 ± 0.072
I26: P -0.868 ± 0.16, L -0.097 ± 0.044, E -0.543 ± 0.091, G -0.657 ± 0.039, C -0.352 ± 0.058
Y17: R 0.054 ± 0.029, S -0.024 ± 0.043, V 0 ± 0.034, W -0.043 ± 0.037, P -0.376 ± 0.039, H -0.121 ± 0.1, E 0.031 ± 0.037, N -0.194 ± 0.068
D37: Q -0.486 ± 0.048, Y -0.731 ± 0.11, W -0.616 ± 0.061, I -1.04 ± 0.2, N -0.235 ± 0.049, C -0.459 ± 0.044, M -1.02 ± 0.1, H -0.166 ± 0.052, S -0.188 ± 0.032, G -0.557 ± 0.032
D3: L -0.175 ± 0.043, E -0.039 ± 0.036, S -0.067 ± 0.036, A -0.089 ± 0.034, N -0.148 ± 0.067, T -0.12 ± 0.042
G21: L -0.67 ± 0.036, P -0.682 ± 0.081, E -0.215 ± 0.039
R39: E -0.244 ± 0.038, A -0.233 ± 0.04, G -0.314 ± 0.029, N -0.476 ± 0.17, V -0.301 ± 0.032, K -0.309 ± 0.061, S -0.259 ± 0.042, D -0.317 ± 0.044, M -0.33 ± 0.034, L -0.349 ± 0.038, F -0.635 ± 0.11
K42: Q -0.056 ± 0.04, R -0.038 ± 0.033, Y -0.223 ± 0.06, C -0.146 ± 0.062, F -0.242 ± 0.048, H -0.081 ± 0.045, E 0.056 ± 0.044
K31: Q -0.004 ± 0.044, G -0.09 ± 0.029, W -0.278 ± 0.036, Y -0.369 ± 0.057, N -0.159 ± 0.094, E -0.035 ± 0.032
E7: P 0.014 ± 0.049, A -0.076 ± 0.038, G 0.013 ± 0.032, M -0.145 ± 0.038, V -0.09 ± 0.04, F -0.327 ± 0.045
W13: A -0.668 ± 0.036, F -0.221 ± 0.17, T -0.475 ± 0.042, P -0.715 ± 0.073, S -0.698 ± 0.096, G -0.696 ± 0.033, I -0.431 ± 0.059
T32: G -0.357 ± 0.03, P -0.879 ± 0.048, A -0.207 ± 0.03, N -0.215 ± 0.073, V -0.082 ± 0.03, E -0.328 ± 0.051, C -0.101 ± 0.037, M -0.071 ± 0.037, R -0.206 ± 0.028, K -0.303 ± 0.041, Y -0.417 ± 0.074
N29: Q -0.089 ± 0.036, R -0.078 ± 0.027, F -0.152 ± 0.074, G -0.069 ± 0.027
A16: G -0.149 ± 0.031, H -0.514 ± 0.092, L -0.297 ± 0.04, E -0.278 ± 0.04, D -0.257 ± 0.042, V -0.193 ± 0.042
C41: V 0.02 ± 0.03, E 0.038 ± 0.044, P 0.043 ± 0.041, S 0.034 ± 0.041, F -0.044 ± 0.095
T20: W -0.328 ± 0.054, P -0.48 ± 0.05, I -0.24 ± 0.053, H -0.345 ± 0.22, E 0.017 ± 0.037, Y -0.256 ± 0.067, C -0.077 ± 0.04
K11: R -0.049 ± 0.03, L -0.08 ± 0.038, Q -0.041 ± 0.044, N -0.118 ± 0.093, F -0.21 ± 0.11, A -0.033 ± 0.039, M -0.161 ± 0.045, D -0.092 ± 0.086, V -0.109 ± 0.037, H -0.08 ± 0.037, E 0.024 ± 0.033, I -0.271 ± 0.069
P10: V -0.816 ± 0.089, I -0.854 ± 0.12, C -0.54 ± 0.11, W -0.837 ± 0.058, F -0.831 ± 0.071, T -0.462 ± 0.053, Q -0.505 ± 0.048, R -0.685 ± 0.034
L36: V -0.019 ± 0.039, C -0.099 ± 0.039, H -0.037 ± 0.07, I -0.07 ± 0.042, A -0.044 ± 0.03, M -0.001 ± 0.041
I23: A 0.053 ± 0.032, Q 0.042 ± 0.044, V 0.03 ± 0.035, D -0.32 ± 0.1, P -0.001 ± 0.064, G -0.087 ± 0.028, T -0.006 ± 0.042
M1: K 0.025 ± 0.047, Y -0.1 ± 0.11, Q -0.253 ± 0.12, T -0.06 ± 0.039, G -0.057 ± 0.032, V -0.089 ± 0.038
D19: C -0.122 ± 0.054, A -0.047 ± 0.033, Q -0.055 ± 0.079, I -0.536 ± 0.15
D27: F -0.716 ± 0.25, T -1.08 ± 0.086, A -0.789 ± 0.037, L -1.11 ± 0.094, P -1.12 ± 0.12, R -1.03 ± 0.047, V -1.01 ± 0.062, N -0.238 ± 0.32, Y -0.119 ± 0.18
T33: D -0.648 ± 0.044, M -0.315 ± 0.057, L -0.496 ± 0.032, Q -0.417 ± 0.038, R -0.351 ± 0.028, E -0.442 ± 0.034, V -0.298 ± 0.03, S -0.187 ± 0.037, H -0.535 ± 0.11, W -0.445 ± 0.042, C -0.142 ± 0.046, G -0.551 ± 0.029
T5: W -0.303 ± 0.062, C -0.123 ± 0.09, G -0.05 ± 0.028, M 0.251 ± 0.14, K 0.072 ± 0.057, H -0.059 ± 0.054, D -0.02 ± 0.054
M22: P -0.62 ± 0.062, V -0.025 ± 0.041, R -0.043 ± 0.033, T -0.005 ± 0.049, D 0.084 ± 0.054

Variants of: B2
Test: as above
Settings: Homo sapiens

Abundance fitness: each site, then its substitutions
R1: A 0.267 ± 0.21, V 0.297 ± 0.19, Y 0.054 ± 0.32, C 0.239 ± 0.16, M 0.23 ± 0.35, S 0.131 ± 0.15, G 0.258 ± 0.11, L 0.561 ± 0.31, I -0.063 ± 0.41, K 0.027 ± 0.2, N 0.354 ± 0.26, T 0.504 ± 0.29
L2: I 0.217 ± 0.13, H -0.006 ± 0.2, F 0.082 ± 0.16, D 0.655 ± 0.14, P -0.227 ± 0.16, N 0.232 ± 0.21, T 0.25 ± 0.12, Y 0.222 ± 0.16, G 0.136 ± 0.083, E 0.17 ± 0.15, S 0.331 ± 0.1, W -0.134 ± 0.13, M -0.221 ± 0.17, R -0.262 ± 0.1, A -0.009 ± 0.12, Q 0.102 ± 0.21
R3: D 0.543 ± 0.11, C 0.216 ± 0.11, E 0.366 ± 0.1, G 0.228 ± 0.076, F 0.037 ± 0.15, A 0.493 ± 0.083
